According to patent publication US20250152742A1, “COMPOSITIONS AND METHODS FOR NEUROLOGICAL DISEASES” (Trames Bio, Inc., priority 2022, published 2025):

Tested on: engineered chimeric receptor SEQ ID NO: 33 and its mutants (human α7-nAChR ligand binding domain / human GlyRα1 ion pore domain) in Lenti-X 293T cells
Assay: YFP fluorescence quenching anion reporter plate reader assay (percent quench, EC50)
Type: cell-based
Settings: for YFP fluorescence quenching using CNL001 (percent quench): receptor named in row; for YFP fluorescence quenching using Facinicline, 30 nM fac: ligand Facinicline 30 nM; for YFP fluorescence quenching using Facinicline, 300 nM fac: ligand Facinicline 300 nM; for YFP fluorescence quenching using Facinicline, 30 uM fac: ligand Facinicline 30 uM; for YFP fluorescence quenching using TC-6987, 1 uM tc6987: ligand TC-6987 1 uM; for YFP fluorescence quenching using TC-6987, 10 uM tc6987: ligand TC-6987 10 uM; for YFP fluorescence quenching using TC-6987, 500 uM tc6987: ligand TC-6987 500 uM; for YFP fluorescence quenching using Varenicline, 3 nM var: ligand Varenicline 3 nM; for YFP fluorescence quenching using Varenicline, 30 nM var: ligand Varenicline 30 nM; for YFP fluorescence quenching using Varenicline, 300 nM var: ligand Varenicline 300 nM; for YFP fluorescence quenching using Varenicline, 500 nM var: ligand Varenicline 500 nM; for YFP fluorescence quenching using Varenicline, 1 uM var: ligand Varenicline 1 uM
How it was run: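 Percent quench compares mean YFP signal over the final 10 s with the 15 s baseline before ligand, added in iodide-containing extracellular solution (pH 7.2). Cells were LX293T carrying a YFP anion reporter, transiently transfected with the channel construct; plates were preincubated 30 min at 37 °C.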

[1] = 1 nM CNL001, first column so headed
[2] = 1 nM CNL001, second column so headed
[3] = 3 nM brd (TC-5619/Bradanicline)
[4] = 10 nM CNL001, first column so headed
[5] = 10 nM CNL001, second column so headed
[6] = 30 nM brd (TC-5619/Bradanicline)
[7] = 50 nM CNL001, first column so headed
[8] = 50 nM CNL001, second column so headed
[9] = 100 nM CNL001, first column so headed
[10] = 100 nM CNL001, second column so headed
[11] = 300 nM brd (TC-5619/Bradanicline)
[12] = 1 uM CNL001, first column so headed
[13] = 1 uM CNL001, second column so headed

B1: CODA342: engineered receptor: L131R in SEQ ID NO: 33 (protein)
chain: MRCSPGGVWLALAASLLHVSLQGEFQRKLYKELVKNYNPLERPVANDSQPLTVYFSLSLLQIMDVDEKNQVLTTNIWLQMSWTDHYLQWNVSEYPGVKTVRFPDGQIWKPDILLYNSADERFDATFHTNVRVNSSGHCQYLPPGIFKSSCPMDLKNFPMDVQTCKLKFGSWSYGGWSLDLQMQEADISGYIPNGEWDLVGIPGKRSERFYECCKEPYPDVTFTVTMRRRMGYYLIQMYIPSLLIVILSWISFWINMDAAPARVGLGITTVLTMTTQSSGSRASLPKVSYVKAIDIWMAVCLLFVFSALLEYAAVNFVSRQHKELLRFRRKRRHHKSPMLNLFQEDEAGEGRFNFSAYGMGPACLQAKDGISVKGANNSNTTNPPPAPSKSPEEMRKLFIQRAKKIDKISRIGFPMAFLIFNMFYWIIYKIVRREDVHNQ
modifications: synthetic sequence of chimeric LGIC
YFP fluorescence quenching using CNL001 (percent quench) [1]: 23.532% | YFP fluorescence quenching using CNL001 (percent quench) [2]: 26.054% | YFP fluorescence quenching using TC-5619/Bradanicline (percent quench) (1 nM brd (TC-5619/Bradanicline)): −7.83% | YFP fluorescence quenching using TC-5619/Bradanicline (percent quench) [3]: −12.89% | YFP fluorescence quenching using CNL001 (percent quench) [4]: 43.69% | YFP fluorescence quenching using CNL001 (percent quench) [5]: 54.016% | YFP fluorescence quenching using TC-5619/Bradanicline (percent quench) (10 nM brd (TC-5619/Bradanicline)): −10.47% | YFP fluorescence quenching using TC-6683 (percent quench) (30 nM TC-6683): −16.26% | YFP fluorescence quenching using TC-5619/Bradanicline (percent quench) [6]: 59.48% | YFP fluorescence quenching using CNL001 (percent quench) [7]: 59.955% | YFP fluorescence quenching using CNL001 (percent quench) [8]: 56.091% | YFP fluorescence quenching using ABT-126 (percent quench) (50 nM abt (ABT-126)): −18.14% | YFP fluorescence quenching using CNL001 (percent quench) [9]: 64.536% | YFP fluorescence quenching using CNL001 (percent quench) [10]: 58.987% | YFP fluorescence quenching (percent quench) (100 nM CNL002): −17.2% | YFP fluorescence quenching using ABT-126 (percent quench) (100 nM abt (ABT-126)): −18.14% | YFP fluorescence quenching using AZD-0328 (percent quench) (100 nM azd0328): 1.79% | YFP fluorescence quenching using TC-5619/Bradanicline (percent quench) (100 nM brd (TC-5619/Bradanicline)): 70.19% | YFP fluorescence quenching using TC-6683 (percent quench) (300 nM TC-6683): −22.45% | YFP fluorescence quenching using ABT-126 (percent quench) (300 nM abt (ABT-126)): −0.81% | YFP fluorescence quenching using AZD-0328 (percent quench) (300 nM azd0328): 66.58% | YFP fluorescence quenching using TC-5619/Bradanicline (percent quench) [11]: 75.11% | YFP fluorescence quenching using ABT-126 (percent quench) (500 nM abt (ABT-126)): 23.29% | YFP fluorescence quenching using CNL001 (percent quench) [12]: 65.987% | YFP fluorescence quenching using CNL001 (percent quench) [13]: 64.312% | YFP fluorescence quenching (percent quench) (1 uM CNL002): 8.12% | YFP fluorescence quenching using ABT-126 (percent quench) (1 uM abt (ABT-126)): 45.76% | YFP fluorescence quenching using TC-5619/Bradanicline (percent quench) (1 uM brd (TC-5619/Bradanicline)): 77.42% | YFP fluorescence quenching using TC-6683 (percent quench) (3 uM TC-6683): −13.48% | YFP fluorescence quenching using ABT-126 (percent quench) (3 uM abt (ABT-126)): 53.03% | YFP fluorescence quenching using ABT-126 (percent quench) (10 uM abt (ABT-126)): 64.08% | YFP fluorescence quenching (percent quench) (10 uM ach (acetylcholine)): −2.57% | YFP fluorescence quenching (percent quench) (30 uM CNL002): 57.24% | YFP fluorescence quenching using TC-6683 (percent quench) (30 uM TC-6683): −12.68% | YFP fluorescence quenching using ABT-126 (percent quench) (30 uM abt (ABT-126)): 71.98% | YFP fluorescence quenching using AZD-0328 (percent quench) (30 uM azd0328): 80.55% | YFP fluorescence quenching using ABT-126 (percent quench) (50 uM abt (ABT-126)): 73.98% | YFP fluorescence quenching using TC-6683 (percent quench) (100 uM TC-6683): −10.33% | YFP fluorescence quenching using ABT-126 (percent quench) (100 uM abt (ABT-126)): 73.51% | YFP fluorescence quenching (percent quench) (100 uM ach (acetylcholine)): −3.18% | YFP fluorescence quenching (percent quench) (1 mM ach (acetylcholine)): 78.98% | YFP fluorescence quenching (percent quench) (3 mM ach (acetylcholine)): 75.75% | YFP fluorescence quenching using Facinicline, 30 nM fac: −6.2 | YFP fluorescence quenching using Facinicline, 300 nM fac: 76.75 | YFP fluorescence quenching using Facinicline, 10 uM fac (ligand Facinicline 10 uM): 82.16 | YFP fluorescence quenching using Facinicline, 30 uM fac: 81.71 | YFP fluorescence quenching using TC-6987, 1 uM tc6987: 2.51 | YFP fluorescence quenching using TC-6987, 10 uM tc6987: 46.22 | YFP fluorescence quenching using TC-6987, 500 uM tc6987: 68.33 | YFP fluorescence quenching using Varenicline, 3 nM var (first column): 0.271 | YFP fluorescence quenching using Varenicline, 3 nM var (second column): −3.613 | YFP fluorescence quenching using Varenicline, 30 nM var (first column): −4.935 | YFP fluorescence quenching using Varenicline, 30 nM var (second column): −4.363 | YFP fluorescence quenching using Varenicline, 300 nM var (first column): 0.282 | YFP fluorescence quenching using Varenicline, 300 nM var (second column): 2.32 | YFP fluorescence quenching using Varenicline, 500 nM var (first column): 23.777 | YFP fluorescence quenching using Varenicline, 500 nM var (second column): 18.376 | YFP fluorescence quenching using Varenicline, 1 uM var (first column): 66.17 | YFP fluorescence quenching using Varenicline, 1 uM var (second column): 66.088

B2: CODA337: engineered receptor: L131N in SEQ ID NO: 33 (protein)
chain: MRCSPGGVWLALAASLLHVSLQGEFQRKLYKELVKNYNPLERPVANDSQPLTVYFSLSLLQIMDVDEKNQVLTTNIWLQMSWTDHYLQWNVSEYPGVKTVRFPDGQIWKPDILLYNSADERFDATFHTNVNVNSSGHCQYLPPGIFKSSCPMDLKNFPMDVQTCKLKFGSWSYGGWSLDLQMQEADISGYIPNGEWDLVGIPGKRSERFYECCKEPYPDVTFTVTMRRRMGYYLIQMYIPSLLIVILSWISFWINMDAAPARVGLGITTVLTMTTQSSGSRASLPKVSYVKAIDIWMAVCLLFVFSALLEYAAVNFVSRQHKELLRFRRKRRHHKSPMLNLFQEDEAGEGRFNFSAYGMGPACLQAKDGISVKGANNSNTTNPPPAPSKSPEEMRKLFIQRAKKIDKISRIGFPMAFLIFNMFYWIIYKIVRREDVHNQ
modifications: synthetic sequence of chimeric LGIC
YFP fluorescence quenching using CNL001 (percent quench) [1]: 76.917% | YFP fluorescence quenching using CNL001 (percent quench) [2]: 79.554% | YFP fluorescence quenching using TC-5619/Bradanicline (percent quench) [3]: 71.02% | YFP fluorescence quenching using CNL001 (percent quench) [4]: 79.479% | YFP fluorescence quenching using CNL001 (percent quench) [5]: 79.506% | YFP fluorescence quenching using TC-6683 (percent quench) (30 nM TC-6683): −11.51% | YFP fluorescence quenching using TC-5619/Bradanicline (percent quench) [6]: 78.43% | YFP fluorescence quenching using CNL001 (percent quench) [7]: 81.465% | YFP fluorescence quenching using CNL001 (percent quench) [8]: 81.297% | YFP fluorescence quenching using ABT-126 (percent quench) (50 nM abt (ABT-126)): −11.64% | YFP fluorescence quenching using CNL001 (percent quench) [9]: 82.619% | YFP fluorescence quenching using CNL001 (percent quench) [10]: 81.722% | YFP fluorescence quenching (percent quench) (100 nM CNL002): 76.37% | YFP fluorescence quenching using ABT-126 (percent quench) (100 nM abt (ABT-126)): 34.79% | YFP fluorescence quenching using AZD-0328 (percent quench) (100 nM azd0328): 82.1% | YFP fluorescence quenching using TC-6683 (percent quench) (300 nM TC-6683): −13.17% | YFP fluorescence quenching using ABT-126 (percent quench) (300 nM abt (ABT-126)): 60.08% | YFP fluorescence quenching using AZD-0328 (percent quench) (300 nM azd0328): 82.52% | YFP fluorescence quenching using TC-5619/Bradanicline (percent quench) [11]: 77.12% | YFP fluorescence quenching using CNL001 (percent quench) [12]: 81.96% | YFP fluorescence quenching using CNL001 (percent quench) [13]: 81.773% | YFP fluorescence quenching (percent quench) (1 uM CNL002): 80.18% | YFP fluorescence quenching using ABT-126 (percent quench) (1 uM abt (ABT-126)): 65.99% | YFP fluorescence quenching using TC-6683 (percent quench) (3 uM TC-6683): −5.46% | YFP fluorescence quenching (percent quench) (10 uM ach (acetylcholine)): 28.32% | YFP fluorescence quenching (percent quench) (30 uM CNL002): 80.93% | YFP fluorescence quenching using TC-6683 (percent quench) (30 uM TC-6683): 8.53% | YFP fluorescence quenching using AZD-0328 (percent quench) (30 uM azd0328): 82.32% | YFP fluorescence quenching using TC-6683 (percent quench) (100 uM TC-6683): 14.41% | YFP fluorescence quenching (percent quench) (100 uM ach (acetylcholine)): 81.8% | YFP fluorescence quenching (percent quench) (1 mM ach (acetylcholine)): 71.22% | YFP fluorescence quenching (percent quench) (3 mM ach (acetylcholine)): 73.7% | YFP fluorescence quenching using Facinicline, 30 nM fac: 82.25 | YFP fluorescence quenching using Facinicline, 300 nM fac: 83.59 | YFP fluorescence quenching using Facinicline, 30 uM fac: 82.82 | YFP fluorescence quenching using TC-6987, 1 uM tc6987: 79.06 | YFP fluorescence quenching using TC-6987, 10 uM tc6987: 82.36 | YFP fluorescence quenching using TC-6987, 500 uM tc6987: 80.19 | YFP fluorescence quenching using Varenicline, 3 nM var (first column): 3.093 | YFP fluorescence quenching using Varenicline, 3 nM var (second column): 12.327 | YFP fluorescence quenching using Varenicline, 30 nM var (first column): 77.097 | YFP fluorescence quenching using Varenicline, 30 nM var (second column): 77.653 | YFP fluorescence quenching using Varenicline, 300 nM var (first column): 79.446 | YFP fluorescence quenching using Varenicline, 300 nM var (second column): 79.998 | YFP fluorescence quenching using Varenicline, 500 nM var (first column): 80.691 | YFP fluorescence quenching using Varenicline, 500 nM var (second column): 80.309 | YFP fluorescence quenching using Varenicline, 1 uM var (first column): 80.258 | YFP fluorescence quenching using Varenicline, 1 uM var (second column): 79.509
